Experimental data taken from publication PMC7008241, “Radiolabeled Cationic Peptides for Targeted Imaging of Infection” (Contrast Media & Molecular Imaging, 2019).
“And” between values parts separate entries of the source, which are not always exact repeats. Equal entries are not always repeated. Where a SMILES comes first, the peptide text is derived from it. [ ]: non-standard residue; d: D form. The star is where a group is joined. DOTA = O=C(O)CN1CCN(CC(=O)O)CCN(CC(=O)*)CCN(CC(=O)O)CC1; X1 = CC(=O)c1ccc(OCCC*)cc1B(O)O

Key:
in vivo [1] = assay: in vivo; design: species or system mice; settings: mouse, iv, total radioactivity
Description: (§1) All animal experiments were performed according to animal use protocols approved by the University of Alabama at Birmingham Institutional Animal Care and Use Committee (IACUC). Animals were housed under controlled conditions with a natural light-dark cycle. They were allowed to adapt to the housing environment for at least 48 h prior to study. Biodistribution and PET imaging studies with ^64Cu-HLys-DOTA and ^64Cu-AB1-HLys-DOTA were conducted in mice intramuscularly (IM) infected in the thigh muscle with SA and PBS as a control. Thirty-six male mice (25–30 g, 4–5 weeks old) infected with SA were used for animal studies. For each peptide, 4 mice were used for small animal PET imaging at 1, 4, and 24 h, and then sacrificed at 24 h for a post-PET biodistribution. Another set of 4 mice each was used for biodistribution studies at 1 and 4 h. A similar set of mice was used for blocking studies with ^64Cu-AB1-HLys-DOTA peptide. In order to check the specificity of ^64Cu-AB1-HLys-DOTA for Gram-positive bacteria, imaging and post-PET biodistribution studies were conducted in another set of mice (four) intramuscularly (IM) infected in the thigh muscle with PA and PBS.
(§2) Mice for infection studies were anesthetized prior to the intramuscular infection of SA or PA. Animals were immobilized with isoflurane. Bacteria cells concentrated in sterile PBS were injected into the thigh muscle and the site of injection pinched to minimize bleeding. SA or PA suspension (50 μL, 2.6–2.8 × 10^7 CFU per mouse) was intramuscularly injected into the right thigh muscle, and sterile PBS (50 μL) was injected into the left thigh muscle as control. Mice were placed back into the cages and allowed to recover with frequent monitoring to identify any sign of extreme distress. The infection was allowed to develop for 3–5 days before intravenous injection of the radiolabeled probe. The muscles on the left and right thighs were harvested, homogenized, and plated on mannitol agar plates or cultured in LB broth to verify the presence of infection. In addition, [^18F]FDG imaging was also performed in infected animal models as described in the PET imaging section below to further confirm the existence of infection in the right thigh and the absence thereof in the left thigh.
(§3) Small animal PET/CT imaging studies were conducted in SA-infected and PA-infected animal models. Each radiolabeled peptide, 3.3–3.7 MBq (90–100 μCi), was administrated via tail vein injection of prewarmed mice under anesthesia. The inflammatory response caused by the infection was confirmed by intravenous injection of [^18F]FDG, 3.7 MBq (100 μCi), into mice infected on the right thigh muscle with SA or PA and on the left with PBS as control. For this small animal PET imaging, 1 and 4 h post-injection static scans were collected. Following imaging studies, the mice were sacrificed for biodistribution. Mice were allowed to recover from anesthesia until the time of imaging. Mice were anesthetized with 2‐3% isoflurane/oxygen and imaged on the small animal PET/CT scanner. Static images were collected at 1, 4, and 24 h for 15, 20, and 30 min, respectively. PET images were coregistered with CT image for anatomical colocalization. Regions of interest (ROI) were manually drawn over organs of interest with CT anatomical guidelines, and the associated radioactivity was measured using Inveon Research Workstation software. Standard uptake values (SUV) were calculated as nCi/cc × animal weight/injected dose, and comparisons in pharmacokinetics of radiolabeled peptides were assessed.

[2] = test system: Staphylococcus aureus (SA) infected thigh muscle; assay: in vivo; design: species or system mice; settings: mouse
Description: as §1, §2, §3

in vivo [3] = assay: in vivo; design: species or system mice; settings: mouse, iv, total radioactivity; remark: listed apart in the source
Description: as §1, §2
For biodistribution studies, 3.3–3.7 MBq (90–100 μCi) of ^64Cu-HLys-DOTA or ^64Cu-AB1-HLys-DOTA was injected into prewarmed tail vein of the animals under anesthesia. Animals were euthanized at 1 and 4 h after radiotracer administration (n = 4 for each tracer at each time point). At 24 h after small animal PET imaging, the mice were also euthanized for a post-PET biodistribution. In a similar set of experiment, excess of the unlabeled peptide, 150 nmol, was coinjected with the radiolabeled peptides per mouse. The organs of interest were collected, weighed, and measured for radioactivity content using a gamma counter. The data were background-corrected and decay-corrected. The biodistribution data were expressed as percentage of injected radioactive dose per gram of tissue (%ID/g) for selected organs as the mean value of four mice.

[4] = test system: Pseudomonas aeruginosa (PA), ATCC 47085; assay: Bacterial cell uptake of 64Cu-labeled peptides in Pseudomonas aeruginosa; assay type: cell-based; settings: PA in PBS pH 7.4, 37°C, gamma counter, triplicates, mean ± SD
From the text: (§4) All solvents and reagents were obtained from Sigma-Aldrich Company unless otherwise specified. […] Diethylenetriaminepentaacetic acid (DTPA) was purchased from Sigma (St. Louis, MO). 1,4,7,10-Tetraazacyclododecane-1,4,7,10-tetraacetic acid mono-N-hydroxysuccinimide ester (DOTA-NHS-ester) was purchased from Macrocyclics (Dallas, Texas). C18 SepPak cartridges were obtained from Waters Corporation (Milford. MA). Radiometric instant thin-layer chromatography measurements were accomplished using a TLC scanner (Bioscan AR-2000 Scanner). Reverse-phase chromatography analysis was performed on a C18 column (PA) with an infinity diode-array UV detector (Agilent, Lake Forest, CA) and a PMT/NaI remote radioactive detector (LabLogic Systems Ltd, Brandon, FL). Laura radiochromatography software (LabLogic Systems Ltd, Brandon, FL) was used to quantify chromatograms by integration. Radioactive samples were counted using a 2480 Wizard II automatic gamma counter (PerkinElmer, Downers Grove, IL). Imaging studies were done by using […] (Sofie BioSciences) [CT-80 Kvp, 5 min (approximately 100 μm), PET-Resolution ≤1 mm]. Acquired PET/CT images were analyzed with InveonTM Research Workplace (IRW) (Siemens). […] At each time point, the mixture was spun down, washed twice with PBS, and the final bacterial pellets were measured using a gamma counter to determine the percent of associated radiolabeled peptide. […]

[5] = test system: Staphylococcus aureus (SA), ATCC 6538; assay: Bacterial cell uptake of 64Cu-labeled peptides in Staphylococcus aureus; assay type: cell-based; settings: SA 0.9–1.3 × 10^7 CFU/mL in PBS pH 7.4, 37°C, 24 h, 0.925–0.999 MBq, gamma counter, triplicates, mean ± SD
From the text: as §4

[6] = male, mean SUV in the infected muscle
[7] = male, mean SUV of the heart (blood retention)
[8] = male, mean SUV of the heart (dose retention)
[9] = male, uptake in the control muscle

| Compound | SUV at 1 h (in vivo [1]; [6]) | SUV at 4 h (in vivo [1]; [6]) | SUV at 24 h (in vivo [1]; [6]) | SUV at 1 h (in vivo [1]; [7]) | SUV at 24 h (in vivo [1]; [8]) | SUV at 1 h (in vivo [1]) | SUV at 4 h (in vivo [1]) | fold increase in accumulation (SUV) vs. ^64Cu-HLys-DOTA at the infection [2] | tissue uptake at 1 h (in vivo [3]; [9]) | tissue uptake at 4 h (in vivo [3]; [9]) | tissue uptake at 24 h (in vivo [3]; [9]) | tissue uptake at 24 h (in vivo [3]) | binding to PA (cell uptake) ([4]; 5 min after incubation) | binding to PA (cell uptake) ([4]; 24 h after incubation) | bacteria cell uptake (percent of associated radiolabeled peptide) [5] |
| --- | --- | --- | --- | --- | --- | --- | --- | --- | --- | --- | --- | --- | --- | --- | --- |
| CC(=O)c1ccc(OCCCSC[C@H](NC(=O)CNC(=O)[C@@H](CCCNC(=N)N)NC(=O)[C@@H](CC(N)=O)NC(=O)[C@@H](CCCNC(=N)N)NC(=O)[C@@H](Cc2c[nH]c3ccccc23)NC(=O)[C@@H](C)NC(=O)[C@H](NC(=O)[C@@H](Cc2c[nH]c3ccccc23)NC(=O)[C@@H](Cc2ccc(O)cc2)NC(=O)[C@@H](CCCNC(=N)N)NC(=O)CN2CCN(CC(=O)O)CCN(CC(=O)O)CCN(CC(=O)O)CC2)C(C)C)C(N)=O)cc1B(O)O [^64Cu-AB1-HLys-DOTA, metal not drawn] ({DOTA}-[dR][dY][dW][dV][dA][dW][dR][dN][dR]GC(X1)-NH2) | 0.7 ± 0.08 SUV | 0.49 ± 0.04 SUV | 0.31 ± 0.01 SUV | 0.65 ± 0.08 SUV | 0.26 ± 0.04 SUV | 0.28 ± 0.1 SUV | 0.19 ± 0.1 SUV | 2.4-4 fold | 2.5 ± 0.5 %ID/g | 1.1 ± 0.4 %ID/g | 0.8 ± 0.1 %ID/g | 0.49 ± 0.11 %ID/g |  |  |  |
| CC(C)[C@@H](NC(=O)[C@@H](Cc1c[nH]c2ccccc12)NC(=O)[C@@H](Cc1ccc(O)cc1)NC(=O)[C@@H](CCCNC(=N)N)NC(=O)CN1CCN(CC(=O)O)CCN(CC(=O)O)CCN(CC(=O)O)CC1)C(=O)N[C@H](C)C(=O)N[C@H](Cc1c[nH]c2ccccc12)C(=O)N[C@H](CCCNC(=N)N)C(=O)N[C@H](CC(N)=O)C(=O)N[C@H](CCCNC(=N)N)C(=O)NCC(N)=O [^64Cu-HLys-DOTA, metal not drawn] ({DOTA}-[dR][dY][dW][dV][dA][dW][dR][dN][dR]G-NH2; N-terminus and C-terminus assumed) | 0.17 ± 0.06 SUV | 0.16 ± 0.02 SUV | 0.13 ± 0.01 SUV | 0.25 ± 0.05 SUV | 0.21 ± 0.04 SUV |  |  |  | 0.6 ± 0.1 %ID/g | 0.4 ± 0.1 %ID/g |  |  | 1.9 ± 0.4% | 5.2 ± 0.3% | 39.12 ± 3.27% and 39.1 ± 3.3% |
